Holding throughout (assay): DELFIA Xpress PlGF sandwich immunoassay; tested substance at 5000 pg/mL
For assay [1], the target named is PlGF-1 (glycosylated), purified recombinant placental growth factor isoform 1 (human) (UniProt P49763).
The target in assay [2] is PlGF-2 (glycosylated), purified recombinant placental growth factor isoform 2 (human).
Assay [3] has as its target PlGF-3 (non-glycosylated), purified recombinant placental growth factor isoform 3 (human) (UniProt P49763).

Chain of PlGF-2 (glycosylated), purified recombinant placental growth factor isoform 2 (human) (chain, as listed by the source limits assumed): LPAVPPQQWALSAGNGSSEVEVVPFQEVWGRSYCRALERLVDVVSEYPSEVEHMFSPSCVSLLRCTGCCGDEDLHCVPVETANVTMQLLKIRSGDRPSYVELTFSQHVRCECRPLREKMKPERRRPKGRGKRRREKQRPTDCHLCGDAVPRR

On to “P1GF-1 antibody provided with the DELFIA Xpress kit (commercial DELFIA Xpress P1GF method, PerkinElmer)”, for which the Observed cross-reactivity (%) came out at 33% in assay [1], 16% in assay [2] and 5% in assay [3].

The record behind these values is patent US20110294227A1.
